Experimental data taken from publication PMC7681013, “Structure and kinetics of indole-3-glycerol phosphate synthase from Pseudomonas aeruginosa: Decarboxylation is not essential for indole formation” (The Journal of Biological Chemistry, 2020).

Substrate: O=C(CNc1ccccc1)[C@H](O)[C@H](O)COP(=O)(O)O
Assay: discontinuous spectrophotometric assay of IGP formation (A278)
Assay type: biochemical, Pseudomonas aeruginosa
Details: 50 mM Tris-HCl, 4 mM MgCl2, 0.5 mM TCEP, pH 7.0, 25 °C, substrate made enzymatically in situ from aniline and PRPP, 2.5 μM enzyme

B1: PaIGPS (Pseudomonas aeruginosa PAO1) (protein)
chain: MSVPTVLQKILARKAEEVAERRARVNLAEVERLARSADAPRGFANALLERAKRKEPAVIAEIKKASPSKGVLREHFVPAEIARSYEAGGAACLSVLTDVDFFQGADAYLKEARAACALPVIRKDFMIDPYQIVEARAIGADCILLIVSALDDVLMAELAATAKSVGLDVLVEVHDGTELERALKTLDTPLVGINNRNLHTFEVSLETTLDLLPEIPRDRLVVTESGILNRADVELMEVSEVYAFLVGEAFMRADDPGLELKRLFFQERGAVVLGADPD
Km: 180 ± 50 µM
kcat: 0.00442 ± 0.000389 s⁻¹
